Test results published in the RNAGym collection of RNA variant scans (doi:10.1073/pnas.2313332121).

B1: TPR t1 (parent)
chain: GACCAAUCUGCCCUCAGAGCUCGAGAACAUCUUCGGAUGCAGAGGAGGCAGGCUUCGGUGGCGCGAUAGCGCCAACGUCCUCAACCUCCAAUGCAUCCCACCACAUGAUGAUGCCUGAAGAGCCUUGGUUUUUUG

Variants of: B1
Assay: polymerase ribozyme fitness, log enrichment relative to wild type (log ratio); higher = more active; in vitro selection for triplet polymerase activity
Method in brief: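 For each subunit of a heterodimeric triplet polymerase ribozyme, a mutant library was built by PCR and transcribed, then taken through a single in vitro selection round in triplicate. Selection involved annealing to a biotinylated primer, the partner subunit and triplets, incubation frozen at −7 °C, gel excision of extended constructs, capture on streptavidin beads and RT-PCR. Genotypes were retained after Illumina sequencing of inputs and outputs only with ≥10 input reads and ≥1 read in each output. Fitness is defined as the logarithm of a genotype's enrichment relative to wild-type enrichment, using inverse-variance-weighted averages across replicates, with the logarithm taken to base 2.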

| Variant | polymerase ribozyme fitness (log ratio) |
| --- | --- |
| G61U G117A | -0.499 |
| U54A C70U C94A | -1.72 |
| G61A G93A C114G | -2.13 |
| C56A G58C C114U | -2.47 |
| A6C G10C G36U | -2.24 |
| C15U G120A | -1.08 |
| A6U C62A | -1.01 |
| A29U U109G G122A | -1.47 |
| G60A U78A U92C | -1.57 |
| C49A U81A A90U C123U | -1.24 |
| G60U U125G | -0.584 |
| G10U U55G A111C | -0.134 |
| A2G G39U G57C A74U U112A C114G | -2.17 |
| G10C U87A | -0.978 |
| G47C C102U U112C | -1.55 |
| C20U C73G C114G | -1.71 |
| C64U C114A | -1.4 |
| G42A C101U | -1.9 |
| A41G G69A C85A | -5.81 |
| C13G U59A C62G | -3.87 |
| C56U U116A | -2.51 |

| Variant | polymerase ribozyme fitness (log ratio) |
| --- | --- |
| U7A C8G A43C C53A G69U | -0.446 |
| C53G G120A G127U | -0.0103 |
| C20A A46U C72G | -4.27 |
| C28U G44U C62U G63C G110C U126A U132C | -4.61 |
| C8G C89A A105U | -3.66 |
| C11U A74U U109G U116A | -6.7 |
| C4A U9G | -0.689 |
| A24G C49A G65C C70A G113U | -6.47 |
| C88U G120U | 0.291 |
| G51U C53U | -2.7 |
| C3U G45U U55A G60A U81A | -1.52 |
| U9A G39A C56A G60A | 0.000466 |
| U7G G48U C70A C86G | -1.54 |
| A24C A50C G52U A111C | -6.93 |
| C12G U14G A24G C49A G61U G77U C104U | -6.42 |
| A46G G113A | -1.46 |
| C70U C98U | -1.16 |
| C8A U112C | 1.3 |
| U7A U14A C86U A90U | -3.61 |
| A108U C123G | -3.08 |
| A16U | -1.46 |

| Variant | polymerase ribozyme fitness (log ratio) |
| --- | --- |
| C13G U32C A46U C70A C104U | -3.75 |
| C11U A37C G45U G58A | -2.72 |
| A5U G17C G23A C115G U131C | -5.42 |
| U112G G127C U130C | -0.498 |
| C20U U112C | 0.258 |
| C28U C31A C85G A119G G120A | -7.42 |
| U9C C72G | 0.104 |
| G10U U87A U92C A121G U132C | 1.22 |
| C20A G51C C56A C79U U106A A121U | -7.26 |
| C12G A50U G117C U125C | -6.32 |
| A5G U54G C88A | -0.448 |
| C11U U131G | -1.44 |
| C4G A16G C97U C123U G127A | -4.37 |
| G35U G69U C123A C124A | -1 |
| U7A C73G U116G | -2.7 |
| C80A A121G | -2.89 |
| G47A A68G | -3.62 |
| C20G G71A A83C | -5.59 |
| C8A G117U A119U C123U | -0.478 |
| A6U C98U U112G | -3.5 |
| G61A G135A | -1.88 |

| Variant | polymerase ribozyme fitness (log ratio) |
| --- | --- |
| C15G C73U G107U G117C | -3.77 |
| A90G C114A | -1.4 |
| G52C C73G C82A | -1.97 |
| G47C C49U | -2.12 |
| G61U C97G G113U | -5.53 |
| A74C U109A | -5.88 |
| G47U C49U C62U G117U | -5.19 |
| U55A C73U C86G C99U | -4.02 |
| U7G U9A A27U C72U U87A U126A | -3.36 |
| U21C U96G C114U | -1.48 |
| A2C C3U | -1.71 |
| A83C C89U A95C | -0.794 |
| C73A C114G U130A | -2.99 |
| C3G A43U | -3.88 |
| C12A G51U C64U A90G | -2.6 |
| C62G G93C G120A U125G U131G | -3.65 |
| U30C G52C | -3.38 |
| G45U C53U | -2.81 |
| U9C C56A | -0.0544 |
| C64G C89U C123U | -5.79 |
